The results in this text go back to US6835814 (Eli Lilly, dated 2004).

B2: FasLigand (monomer) (ligand, UniProt P48023 103-281, looked up)
chain: QLFHLQKELAELRESTSQMHTASSLEKQIGHPSPPPEKKELRKVAHLTGKSNSRSMPLEWEDTYGIVLLSGVKYKKGGLVINETGLYFVYSKVYFRGQSCNNLPLSHKVYMRNSKYPQDLVMMEGKMMSYCTTGQMWARSSYLGAVFNLTSADHLYVNVSELSLVNFEESQTFFGLYKL
notes: Immobilized on a CM5 chip by amine coupling and printed as 'FasLigand (monomer)'; also called Fas Ligand (Kamiya Biomedical Company)

The assay “FasLigand (monomer)” addresses B2. In words: SPR (Biacore 2000), FasLigand immobilized on CM5 chip, Fas in solution. As for the experimental part:
(§1) FasL or the FLINT analog are immobilized through their primary amine group on lysine residues onto carboxymethyldextran polymer attached to a gold surface (Sensor Chip CM5). Immobilization is carried out using the amine coupling kit (Biacore) according to the manufacturer's protocol. Briefly, 100 µl of either FasL or FLINT analog solutions (10–25 µg/ml in sodium acetate buffer 20 mM, pH 5.0) is loaded onto an activated CM5 chip. After coupling, excess reactive groups on the surface are deactivated with 1M ethanolamine hydrochloride pH 8.5. The chip is then washed with a sodium acetate buffer 20 mM, pH 5.0 to remove non-covalently bound material.
(§2) To analyze the interaction between FasL and FLINT analogs, solutions containing the FLINT analogs are passed over the chip with PasL immobilized thereon. The amount of the FLINT analog associated with FasL is determined by measuring the surface plasmon resonance signal (in responce units, RU). Typically, FLINT analog solutions at different concentrations in HBS-ET buffer are loaded on the sensor chip for 10 minutes at a flow rate of 5 µl/min. […]
(§3) The data is evaluated and binding parameters determined using BIA evaluation 3.0.2 software (Biacore). The Kd for the interaction between FLINT and FasL and between FasL and Fas was determined using the protocols described above.

Assay [1] deals with T1, FLINT (FAS Ligand Inhibitory Protein), mature human FLINT (human, UniProt O95407 30-300).
T1 construct: also called mature FLINT
T1 sequence: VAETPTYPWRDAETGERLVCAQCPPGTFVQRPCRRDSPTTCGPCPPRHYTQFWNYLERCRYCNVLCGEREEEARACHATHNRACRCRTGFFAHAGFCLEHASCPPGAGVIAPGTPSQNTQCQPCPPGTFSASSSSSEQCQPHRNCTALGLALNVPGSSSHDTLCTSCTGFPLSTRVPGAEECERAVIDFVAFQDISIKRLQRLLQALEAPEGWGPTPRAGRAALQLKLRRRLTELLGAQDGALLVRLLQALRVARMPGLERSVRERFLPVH
Briefly: SPR (Biacore 2000), FasLigand immobilized on CM5 chip, FLINT in solution. As for the experimental part:
as §1, §2, §3
(In general: In SPR one partner is held on a chip, and binding of the other changes the refractive index at the surface.)

B1: Fas/Fc chimera (R&D Systems) (Fc fusion, UniProt P25445 26-173, looked up)
chain: QVTDINSKGLELRKTVTTVETQNLEGLHHDGQFCHKPCPPGERKARDCTVNGDEPDCVPCQEGKEYTDKAHFSSKCRRCRLCDEGHGLEVEINCTRTQNTKCRCKPNFFCNSTVCEHCDPCTKCEHGIIKECTLTSNTKCKEEGSRSN
notes: The result line prints only 'Fas'; also called Pas/Fc chimera; Fc part of the bought chimera not given; not described
With B1, the equilibrium dissociation constant (Kd) (in general, a measure of binding affinity in units of concentration) with FasLigand (monomer) worked out at 162 nM. The molecule B2 displayed a Kd in assay [1] of 113 nM.
